Experimental data published in US12404328.

Biological target: CD19 expressed on the surface of KILR Raji cells (UniProt P15391)
Assay: cell-based or functional assay

Chain of CD19 expressed on the surface of KILR Raji cells (P15391 20-556 limits assumed): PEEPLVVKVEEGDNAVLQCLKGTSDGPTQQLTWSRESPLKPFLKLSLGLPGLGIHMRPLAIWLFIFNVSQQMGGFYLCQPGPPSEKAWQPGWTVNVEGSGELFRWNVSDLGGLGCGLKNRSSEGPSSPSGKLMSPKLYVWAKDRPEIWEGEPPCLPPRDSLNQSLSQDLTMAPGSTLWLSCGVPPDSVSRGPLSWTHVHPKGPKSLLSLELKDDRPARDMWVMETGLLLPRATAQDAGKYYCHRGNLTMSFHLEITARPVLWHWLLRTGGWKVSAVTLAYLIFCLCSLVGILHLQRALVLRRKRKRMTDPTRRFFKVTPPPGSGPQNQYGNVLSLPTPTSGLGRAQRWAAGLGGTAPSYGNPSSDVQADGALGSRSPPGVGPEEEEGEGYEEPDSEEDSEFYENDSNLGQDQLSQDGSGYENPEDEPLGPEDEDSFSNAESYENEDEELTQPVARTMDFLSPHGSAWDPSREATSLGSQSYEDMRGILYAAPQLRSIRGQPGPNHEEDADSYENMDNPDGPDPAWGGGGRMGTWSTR

Substance: blinatumomab (bispecific antibody)
- EC50 of T cell-redirected killing of KILR Raji cells, +HSA (15 mg/mL): 10.8 ng/mL
- EC50 of T cell-redirected killing of KILR Raji cells, -HSA: 2.85 ng/mL
- Fold change (EC50 +HSA / EC50 -HSA) of killing of KILR Raji cells: 3.8 fold
